For the assay, the target named is Von Willebrand factor (VWF) (human) (UniProt P04275). Briefly: specific fVIII activity of the purified complex; heparin-Sepharose purified starting material, VWF 0.54 mg/ml and fVIII activity 38 U/ml (one-stage coagulation assay); mass ratio worked out with a cited specific activity of fVIII of ~5000 U/mg.

In the case of “blood coagulation factor VIII (fVIII) (natural protein)”, the percentage mass ratio of fVIII to VWF amounted to 1%.

The record behind these values is PMC8005835.
